{"source": "patent US20180094056A1", "about": "(Genentech, published 2018)", "key": {"[1]": {"target": "T1, recombinant human Her2 ECD (Human Her2/ErbB2 protein, catalog #10004-HCCH, Sino Biological Inc.) (human, UniProt P04626 23-652)", "T1 construct": "extracellular domain; also called HER2 antigen; HER2 target", "test": "SPR (Biacore T200), HER2 ECD immobilised on CM5, anti-HER2/CD3 TDB as analyte"}, "[2]": {"target": "T1, recombinant human Her2 ECD (Human …)", "test": "SPR (Biacore), conditions of Example 1, HER2 ECD immobilized on CM5 chip"}, "[3]": {"target": "T1, recombinant human Her2 ECD (Human …)", "test": "SPR (Biacore), conditions of Example 1, human Her2 ECD immobilized on CM5 chip"}}, "data": [{"binder": "4D5v3-40G5 anti-HER2/CD3 TDB (bispecific antibody, V domains shown, also called HER2 TDB) VH 1: not shown VL 1: not shown VH 2: EVQLVQSGAEVKKPGASVKVSCKASGYTFTNYYIHWVRQAPGQGLEWIGWIYPGDGNTKYNEKFKGRATLTADTSTSTAYLELSSLRSEDTAVYYCARDSYSNYYFDYWGQGTLVTVSS VL 2: DIVMTQSPDSLAVSLGERATINCKSSQSLLNSRTRKNYLAWYQQKPGQPPKLLIYWASTRESGVPDRFSGSGSGTDFTLTISSLQAEDVAVYYCTQSFILRTFGQGTKVEIK", "values": [{"measurement": "fold affinity relative to wildtype 4D5 TDB", "setting": "[1]", "value": "~10", "unit": "fold"}, {"measurement": "Kd", "setting": "[2]", "value": 60, "unit": "pM"}, {"measurement": "Kd", "setting": "[3]", "value": 40, "unit": "pM"}]}]}
